The text below walks through data of patent US20190290686A1.

A value given as a limit tells only on which side of the number the result lay.

In this assay the target is T cell receptor of CD8+ T cells from OT1 transgenic mice (ova-specific T cells). As to the kind of experiment: cell-based or functional assay.

Regarding “H-2Kb SIINFEKL-DBCO-Thiolinker monomer clicked onto azido-labeled murine erythroid cells (from UniProt P01901 22-305) (peptide-MHC)”, the expansion of OT1 cells in vivo after a second aAPC dose (FIG. 6) was greater than 200 fold.
